Results on 27 molecules are retold here after patent US20170165338A1.

For this test, the target named is HLA-A*24 (human). Put plainly: UV-exchange b2m ELISA. In general terms: An ELISA detects its analyte on a solid surface through an enzyme-linked reagent.
As to EYNQWFTKL, the peptide exchange yield was 50 to 75%.

RYAEEVGIF returned a peptide exchange yield of 50 to 75%.

Turning to TYKDEGNDYF, the peptide exchange yield lay within 50 to 75%.

With LFIPSSKLLFL, the peptide exchange yield lay within 50 to 75%.

In turn, VFTRVSSFL came in with a peptide exchange yield of 50 to 75%.

Consider KYQDILETI, for which the peptide exchange yield was > 75%.

Regarding IYSWILDHF, the peptide exchange yield is > 75%.

Regarding TYELRYFQI, the peptide exchange yield is > 75%.

As to YYVESGKLF, the peptide exchange yield is > 75%.

Take TYSVSFPMF: the peptide exchange yield is > 75%.

YYGPSLFLL: the peptide exchange yield fell in the range of 50 to 75%.

As for TFSVSSHLF, the peptide exchange yield lay within 50 to 75%.

As for NYINRILKL, the peptide exchange yield is > 75%.

In turn, VYEDQVGKF showed a peptide exchange yield of 20 to 49%.

IYATEAHVF showed a peptide exchange yield of 50 to 75%.

Take VYVGGGQIIHL: the peptide exchange yield fell in the range of 50 to 75%.

On to AYVVFVSTL, for which the peptide exchange yield is 20 to 49%.

On to EYSLFPGQVVI, for which the peptide exchange yield is 50 to 75%.

YYKSTSSAF yielded a peptide exchange yield of 50 to 75%.

Take VYWDSAGAAHF: the peptide exchange yield is > 75%.

As to DYTTWTALL, the peptide exchange yield is > 75%.

The molecule KFSSFSLFF came in with a peptide exchange yield of 50 to 75%.

Take LYIDRPLPYL: the peptide exchange yield is 50 to 75%.

Molecule QYLGQIQHI came in with a peptide exchange yield of 50 to 75%.

Turning to YYEVHKELF, the peptide exchange yield was > 75%.

For DYLKGLASF, the peptide exchange yield was > 75%.

AYTLIAPNI came in with a peptide exchange yield of 50 to 75%.
